Test results reported in patent US20030162258A1, “Inhibitors of G protein-mediated signaling, methods of making them, and uses thereof” (Northwestern University, priority 2000, published 2003).

Assays:
[1] = biological target: thrombin receptor, PAR-1, in human microvascular endothelial cells (HMEC) (human) (UniProt P25116); assay: cell-based or functional assay
[2] = tested on: PAR-1 gene promotor; assay: Thrombin-stimulated PAR-1 gene induction, luciferase reporter assay in HMEC; type: cell-based, human; conditions: 10 nanomolar thrombin, four hours, pertussis toxin 100 nanograms per milliliter pretreatment
Description: Thrombin treatment of cells induces the expression of the gene encoding its GPCR, PAR-1. This induction is mediated through the PAR-1 gene promotor sequence. The PAR-1 gene promotor sequence can be made to direct the expression of a reporter gene such as, the luciferase gene, thereby providing a means of observing the level of PAR-1 gene induction occurring in response to thrombin treatment of cells.
A PAR-1 promoter sequence comprising 1.82 kilobases was inserted upstream of the gene, Firefly (Photinus pyralis) luciferase in a pGL2 vector DNA to generate the plasmid DNA, PCR-1/Luc. The sea pansy (Renilla reniformis) luciferase gene operably linked to the Herpes Simplex Virus-Thymidine Kinase promoter (TK) in a pRL vector DNA (TK/pRL) served as an internal control to correct for experimental variation. HMEC were co-transfected with 100 nanograms each of a reporter DNA, PCR-1/Luc or TK/pRL, and one of pcDNA3.1, pcDNA-Gαi, or pcDNA-GαiR using protocols and reagents described in the previous Example. Twenty four hours post-transfection, HMEC were incubated in serum-free culture media (Dulbecco's Modified Eagles Medium, DMEM) for 2 hr at 37° C., following which, thrombin was added to the culture media at a concentration of 10 nanomolar. The cells were then incubated at 37° C. for four hours and lysed. […]

Sequence of UniProt P25116 (P25116 42-425): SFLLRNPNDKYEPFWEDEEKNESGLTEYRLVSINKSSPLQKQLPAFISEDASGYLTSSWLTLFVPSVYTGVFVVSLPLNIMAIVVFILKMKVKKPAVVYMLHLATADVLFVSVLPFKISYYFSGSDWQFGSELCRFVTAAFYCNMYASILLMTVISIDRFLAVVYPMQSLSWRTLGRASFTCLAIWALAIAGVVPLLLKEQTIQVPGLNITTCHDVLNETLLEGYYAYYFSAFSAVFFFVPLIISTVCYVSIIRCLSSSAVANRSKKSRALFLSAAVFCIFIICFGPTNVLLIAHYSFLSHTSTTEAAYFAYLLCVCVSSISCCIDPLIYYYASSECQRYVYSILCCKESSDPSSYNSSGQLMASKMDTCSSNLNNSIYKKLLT

Row | decrease in transendothelial electrical resistance (TEER) following thrombin stimulation, HMEC [1] [%] | Substance | level of luciferase activity after thrombin treatment (PAR-1 gene induction) [2]
1 | 23 | Gαs carboxy terminal peptide encoded by minigene pcDNA-Gαs (from UniProt P63092 384-394) | 
2 |  | Pertussis toxin | blocked the increase in luciferase levels
